Data reported in patent US6420522 (VERTEX PHARMACEUTICALS, dated 2002).
Where two headings read alike, the source gives them in different places. Starred links: 1 amine or outer side, 2 acyl side, 3 side chain; linkers in the order of their positions; H or OH if unused. Non-standard residues stand in square brackets, D forms with d. No end group written: not given here. *: point of attachment. Asp‑al = Asp with the carboxyl reduced to aldehyde (3-amino-4-oxobutanoic acid), O=C[C@H](CC(=O)[*:3])N[*:1]; benzoxazol‑2‑yl ketone = Asp carboxyl replaced by 2-benzoxazolyl ketone, c1ccc2oc(*)nc2c1; Pro(4R-allyloxy) = 4(R)-allyloxyproline, C=CCO[C@@H]1C[C@@H](C(=O)[*:2])N([*:1])C1; X3 = (2,6-dichlorophenylmethyloxy)methyl ketone, Clc1cccc(Cl)c1COC*; X1 = 7‑methoxybenzoxazol‑2‑yl ketone, COc1cccc2nc(*)oc12; X2 = 4‑methoxybenzoxazol‑2‑yl ketone, COc1cccc2oc(*)nc12; X4 = (2-chlorobenzyloxy)methyl ketone, Clc1ccccc1COC*; Pro(4-benzyloxy) = 4-benzyloxyproline; Pro(4-phenoxy) = 4-phenoxyproline; Hyp = O=C(O)[C@@H]1C[C@@H](O)CN1; Cbz = O=C(OCc1ccccc1)*

Columns and labels:
[1] = target: interleukin-1β converting enzyme (ICE), as used in the enzyme assays (UniProt P29466); assay: ICE enzyme inhibition, UV-visible substrate Suc-YVAD-pNA
[2] = target: interleukin-1β converting enzyme (ICE), as used in the enzyme assays (UniProt P29466); assay: ICE enzyme inhibition, fluorescent substrate Ac-YVAD-AMC
[3] = target: T1, interleukin-1β converting enzyme (ICE) in human peripheral blood mononuclear cells (human, UniProt P29466 1-404, limits assumed); assay: cell-based or functional assay
T1 sequence (looked up): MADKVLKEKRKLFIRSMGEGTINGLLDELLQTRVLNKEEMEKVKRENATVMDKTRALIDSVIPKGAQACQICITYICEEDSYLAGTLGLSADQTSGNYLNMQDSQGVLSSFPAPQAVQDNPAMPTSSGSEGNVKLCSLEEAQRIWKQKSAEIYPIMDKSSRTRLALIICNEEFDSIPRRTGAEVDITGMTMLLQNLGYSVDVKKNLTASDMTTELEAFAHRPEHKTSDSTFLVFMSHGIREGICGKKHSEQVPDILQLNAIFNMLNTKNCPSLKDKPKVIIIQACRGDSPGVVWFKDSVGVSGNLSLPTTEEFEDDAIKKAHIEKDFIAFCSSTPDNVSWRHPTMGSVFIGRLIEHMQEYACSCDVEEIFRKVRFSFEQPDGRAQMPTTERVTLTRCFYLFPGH

[4] = target: T1, interleukin-1β converting enzyme (ICE) …; assay: cell-based or functional assay; remark: listed apart in the source
[5] = target: T1, interleukin-1β converting enzyme (ICE) …; assay: cell-based or functional assay; remark: listed apart in the source
[6] = target: T2, interleukin-1β converting enzyme (ICE), as used in the enzyme assays (UniProt P29466 120-297; P29466 317-404, limits assumed); assay: ICE enzyme inhibition, fluorescent substrate Ac-YVAD-AMC
T2 construct: also called IL-1β Converting Enzyme
T2 sequence (looked up) 1: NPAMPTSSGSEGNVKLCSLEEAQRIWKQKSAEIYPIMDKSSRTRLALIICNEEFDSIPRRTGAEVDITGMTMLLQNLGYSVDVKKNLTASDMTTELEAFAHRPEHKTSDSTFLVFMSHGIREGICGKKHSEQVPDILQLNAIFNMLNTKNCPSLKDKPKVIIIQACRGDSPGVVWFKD
T2 sequence (looked up) 2: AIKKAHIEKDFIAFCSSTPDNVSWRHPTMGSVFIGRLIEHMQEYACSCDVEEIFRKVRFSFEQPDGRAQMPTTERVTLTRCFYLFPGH
Description: This assay is run essentially according to Thornberry et al. (Nature 356: 768–774 (1992)), using substrate 17 referenced in that article. […] The following components are mixed:
Buffer and ICE are added to the wells. The components are left to incubate at 37° C for 15 minutes in a temperature-controlled wellplate. […] A linear fit of the data for each well is performed and a rate is determined in fluorescence units per second.

[7] = target: T2, interleukin-1β converting enzyme (ICE), …; assay: ICE enzyme inhibition, UV-visible substrate Suc-YVAD-pNA
Description: Synthesis of analogous substrates is described by L. A. Reiter (Int. J. Peptide Protein Res. 43, 87–96 (1994)). […] Buffer, ICE and DMSO (if inhibitor is present) are added to the wells in the order listed. The components are left to incubate at room temperature for 15 minutes starting at the time that all components are present in all wells. The microtiter plate reader is set to incubate at 37° C. After the 15 minute incubation, substrate is added directly to the wells and the reaction is monitored by following the release of the chromophore (pNA) at 405–603 nm at 37° C. for 20 minutes. A linear fit of the data is performed and the rate is calculated in mOD/min. DMSO is only present during experiments involving inhibitors, buffer is used to make up the volume to 100 µl in the other experiments.

Row | Molecule | Ki [1] | Cell IC50 (µM): inhibitor concentration at which 50% of mature IL-1β is detected in the supernatant [3] | Ki [7] | other results
1 | N-(N-Acetyl-tyrosinyl-valinyl-pipecolyl)-3-amino-4-oxobutanoic acid (peptide) | 23 nM |  |  | Ki [2]: 4.7 nM
2 | N-[2-(N-Acetyl-tyrosinyl-valinyl)-(S)-1,2,3,4-tetrahydroisoquinoline-3-carbonyl]-3-amino-oxobutanoic acid (peptide) | 14 nM |  |  | 
3 | Cbz-Val-Ala-Asp-{benzoxazol‑2‑yl ketone} (SMILES CC(C)[C@H](NC(=O)OCc1ccccc1)C(=O)N[C@@H](C)C(=O)N[C@@H](CC(=O)O)C(=O)c1nc2ccccc2o1) [(3S) N-(N-Benzyloxycarbonyl-(S)-valinyl-(S)-alaninyl)-3-amino-4-(2-benzoxazolyl)-4-oxobutanoate] | 850 nM | 4.1 µM |  | 
4 | Cbz-Val-Ala-Asp-X3 (also: Asp-derived residue (R,S)) | 100 nM | 3.3 µM |  | 
5 | Ac-Val-Pro-Asp-X1 (not fully specified (residues 2, 3)) | 175 nM |  |  | Cell IC50 (µM): inhibitor concentration at which 50% of mature IL-1β is detected in the supernatant [4]: 4 µM
6 | Ac-YV[Pro(4-phenoxy)][Asp‑al] (not fully specified (C-terminus)) [N-(N-Acetyl-tyrosinyl-valinyl-(4-phenoxyprolinyl))-3-amino-4-oxobutanoic acid] |  |  | 7.2 nM | Cell IC50 (µM): inhibitor concentration at which 50% of mature IL-1β is detected in the supernatant [5]: 2.6 µM; Ki [6]: 5.2 nM
7 | Ac-YVAD-X1 (SMILES COc1cccc2nc(C(=O)[C@H](CC(=O)O)NC(=O)[C@H](C)NC(=O)[C@@H](NC(=O)[C@H](Cc3ccc(O)cc3)NC(C)=O)C(C)C)oc12, also called 69a) |  | 0.735 µM | 11 nM | 
8 | Ac-YVAD-X2 (SMILES COc1cccc2oc(C(=O)[C@H](CC(=O)O)NC(=O)[C@H](C)NC(=O)[C@@H](NC(=O)[C@H](Cc3ccc(O)cc3)NC(C)=O)C(C)C)nc12, The printed name begins with 't-Butyl', but the compound was made by the method for the acid 69a and its printed formula C31H37N5O10 is that of the free acid; also called 69b) |  | 0.745 µM | 50 nM | 
9 | Ac-YVAD-X3 (also: Asp-derived residue (R,S), also called 84b) |  | 0.5 µM | 19 nM | 
10 | Ac-YVAD-X4 (SMILES CC(=O)N[C@@H](Cc1ccc(O)cc1)C(=O)N[C@H](C(=O)N[C@@H](C)C(=O)N[C@@H](CC(=O)O)C(=O)COCc1ccccc1Cl)C(C)C, also called 89) |  |  | 18 nM | 
11 | Ac-YV[Pro(4R-allyloxy)][Asp‑al] (not fully specified (C-terminus), also called 85) [N-(N-Acetyl-tyrosinyl-valinyl-(4(R)-allyloxy prolinyl))-3(S)-amino-4-oxobutanoic acid] |  |  | 3.5 nM | Cell IC50 (µM): inhibitor concentration at which 50% of mature IL-1β is detected in the supernatant [4]: 9.8 µM
12 | Ac-YV[Pro(4-benzyloxy)][Asp‑al] (not fully specified (C-terminus)) [N-[N-Acetyl-tyrosinyl-valinyl-(4-benzyloxy)prolinyl]-3-amino-4-oxobutanoic acid] |  |  | 10 nM | Ki [6]: 2 nM
13 | Ac-YV[Hyp][Asp‑al] (not fully specified (C-terminus)) [N-[N-Acetyl-tyrosinyl-valinyl-(4-hydroxyprolinyl)]-3-amino-4-oxobutanoic acid] |  |  | 12 nM | Ki [6]: 3.9 nM
